Paper PMC5427921, “PRL3 phosphatase active site is required for binding the putative magnesium transporter CNNM3” (Scientific Reports, 2017)

Columns and labels:
[1] = molecular target: CNNM2 CBS-pair domain (Homo sapiens) (UniProt Q9H8M5); conditions: cited from earlier work
[2] = molecular target: CNNM3 CBS-pair domain (Homo sapiens) (UniProt Q8NE01); conditions: cited from earlier work
[3] = molecular target: CNNM3 CBS-pair domain as a GST fusion (human) (UniProt Q8NE01); assay: ITC; syringe 160 μM PRL2 or PRL3, cell 16 μM CNNM3 CBS-pair domain as a GST fusion; 22 °C; 30 injections of 10 μl; fitted to a single set of identical sites
Chain of CNNM3 CBS-pair domain as a GST fusion (human) (Q8NE01 309-452): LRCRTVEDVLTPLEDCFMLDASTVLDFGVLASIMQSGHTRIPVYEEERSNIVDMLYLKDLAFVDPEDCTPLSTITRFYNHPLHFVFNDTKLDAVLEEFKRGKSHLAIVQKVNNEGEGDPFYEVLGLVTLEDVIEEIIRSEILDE

Chain of PRL2 (Q12974 1-164): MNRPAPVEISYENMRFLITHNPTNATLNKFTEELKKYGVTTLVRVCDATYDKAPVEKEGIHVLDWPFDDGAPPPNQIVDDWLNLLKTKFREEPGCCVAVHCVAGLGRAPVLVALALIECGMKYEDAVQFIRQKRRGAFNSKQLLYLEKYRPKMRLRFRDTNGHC
Chain of PRL1 (Q93096 1-170): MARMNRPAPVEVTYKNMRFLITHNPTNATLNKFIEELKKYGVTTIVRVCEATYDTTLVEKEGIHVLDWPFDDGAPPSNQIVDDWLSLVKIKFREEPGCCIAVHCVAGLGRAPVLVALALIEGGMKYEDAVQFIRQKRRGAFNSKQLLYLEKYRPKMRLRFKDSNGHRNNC
Chain of CNNM3 CBS-pair domain (Homo sapiens) (Q8NE01 309-452): as the sequence (Q8NE01 309-452) above
Chain of CNNM2 CBS-pair domain (Homo sapiens) (Q9H8M5 429-584): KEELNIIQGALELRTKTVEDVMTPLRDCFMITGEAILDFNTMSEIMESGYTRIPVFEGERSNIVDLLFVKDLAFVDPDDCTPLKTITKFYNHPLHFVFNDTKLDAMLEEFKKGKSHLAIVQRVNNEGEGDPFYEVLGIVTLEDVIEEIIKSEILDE

For PRL1 (from UniProt Q93096), the Kd [1] is given as 0.64 µM.
For PRL2 (from UniProt Q12974), the Kd [2] is given as 0.025 µM.
“PRL2 phosphatase (as used in ITC) (from UniProt Q12974 1-167) (enzyme)” gave a dH [3] of -16.6 kcal/mol and a stoichiometry N [3] of 1.02.
